Source: PMC10692916, “Protein arginine N-methyltransferase 2 plays a noncatalytic role in the histone methylation activity of PRMT1” (The Journal of Biological Chemistry, 2023)

Columns and labels:
[1] = biological target: T1, Protein arginine N-methyltransferase 2 (PRMT2), full-length, wild type (human, UniProt P55345-1 1-433); assay: differential scanning fluorimetry; 5 uM PRMT2, PRMT2ΔSH3 or PRMT2H112Q with 0-500 uM peptide, 7.5x SYPRO Orange, 50 mM Hepes pH 8.0, 10 mM NaCl, 1.0 mM DTT; 30 min at room temperature, heated 25-80 °C; KD from Tm against ligand concentration, single site model; details: both partners purified
T1 construct: PRMT2, human, UniProt P55345-1 as printed; cloned in pET28a(+); also called WT PRMT2; native PRMT2; source: E. coli Arctic Express (DE3), purified (Ni-NTA, Superdex 200 SEC)
T1 sequence (looked up): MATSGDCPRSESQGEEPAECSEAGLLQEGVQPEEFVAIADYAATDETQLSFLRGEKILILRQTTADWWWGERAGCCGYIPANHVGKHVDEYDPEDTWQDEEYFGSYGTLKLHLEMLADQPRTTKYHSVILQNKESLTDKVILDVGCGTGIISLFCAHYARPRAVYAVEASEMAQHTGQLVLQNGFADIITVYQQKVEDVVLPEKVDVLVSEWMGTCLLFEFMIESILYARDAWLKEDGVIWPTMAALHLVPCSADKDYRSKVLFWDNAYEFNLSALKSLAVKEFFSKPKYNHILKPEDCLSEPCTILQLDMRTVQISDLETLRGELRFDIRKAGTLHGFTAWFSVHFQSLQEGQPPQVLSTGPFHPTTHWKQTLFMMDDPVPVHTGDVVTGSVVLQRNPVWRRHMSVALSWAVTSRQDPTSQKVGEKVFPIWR

[2] = biological target: Protein arginine N-methyltransferase 1 (PRMT1) (human) (UniProt Q99873)
Chain of Protein arginine N-methyltransferase 1 (PRMT1) (human) (Q99873 other isoform, or with tags, fused parts or gaps): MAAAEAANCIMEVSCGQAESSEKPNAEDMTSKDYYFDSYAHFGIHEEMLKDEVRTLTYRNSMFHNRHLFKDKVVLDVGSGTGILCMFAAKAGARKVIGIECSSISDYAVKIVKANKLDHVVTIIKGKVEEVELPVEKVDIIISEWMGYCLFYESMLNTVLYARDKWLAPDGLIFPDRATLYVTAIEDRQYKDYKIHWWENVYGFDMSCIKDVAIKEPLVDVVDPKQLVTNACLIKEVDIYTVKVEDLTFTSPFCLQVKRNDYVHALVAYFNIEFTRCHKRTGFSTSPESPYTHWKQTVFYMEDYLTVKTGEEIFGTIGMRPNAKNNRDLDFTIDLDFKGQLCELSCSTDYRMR

[3] = biological target: the molecule itself; assay: native gel or EMSA; mCer-PRMT1 and mCit-PRMT2, 1 uM each, alone or mixed, 1 h at 37 °C in methylation buffer without SAH or H3 peptide; 4-20% native PAGE, fluorescence imaging

B1: Histone H4 peptide (Ac-SGRGKGGKGLGKGGAKR) (peptide)
peptide: SGRGKGGKGLGKGGAKR
modifications: N-terminal acetylation
notes: N-terminal tail of histone H4; source: synthetic peptide, bought: Canada Peptide
[1]
  ΔTm at 500 μM peptide: 5.87 °C

B2: Protein arginine N-methyltransferase 2 (PRMT2), full-length, wild type (enzyme)
chain: MATSGDCPRSESQGEEPAECSEAGLLQEGVQPEEFVAIADYAATDETQLSFLRGEKILILRQTTADWWWGERAGCCGYIPANHVGKHVDEYDPEDTWQDEEYFGSYGTLKLHLEMLADQPRTTKYHSVILQNKESLTDKVILDVGCGTGIISLFCAHYARPRAVYAVEASEMAQHTGQLVLQNGFADIITVYQQKVEDVVLPEKVDVLVSEWMGTCLLFEFMIESILYARDAWLKEDGVIWPTMAALHLVPCSADKDYRSKVLFWDNAYEFNLSALKSLAVKEFFSKPKYNHILKPEDCLSEPCTILQLDMRTVQISDLETLRGELRFDIRKAGTLHGFTAWFSVHFQSLQEGQPPQVLSTGPFHPTTHWKQTLFMMDDPVPVHTGDVVTGSVVLQRNPVWRRHMSVALSWAVTSRQDPTSQKVGEKVFPIWR
[2]
  methylation signal of histone H2A at 50 ug/ml calf thymus histones, PRMT1 100 nM with 10-fold excess of PRMT2, densitometry of phosphor images: 3 fold

B3: mCit-PRMT2 (mCitrine fusion of PRMT2) (enzyme, human, UniProt P55345-1 1-433, looked up)
chain: MATSGDCPRSESQGEEPAECSEAGLLQEGVQPEEFVAIADYAATDETQLSFLRGEKILILRQTTADWWWGERAGCCGYIPANHVGKHVDEYDPEDTWQDEEYFGSYGTLKLHLEMLADQPRTTKYHSVILQNKESLTDKVILDVGCGTGIISLFCAHYARPRAVYAVEASEMAQHTGQLVLQNGFADIITVYQQKVEDVVLPEKVDVLVSEWMGTCLLFEFMIESILYARDAWLKEDGVIWPTMAALHLVPCSADKDYRSKVLFWDNAYEFNLSALKSLAVKEFFSKPKYNHILKPEDCLSEPCTILQLDMRTVQISDLETLRGELRFDIRKAGTLHGFTAWFSVHFQSLQEGQPPQVLSTGPFHPTTHWKQTLFMMDDPVPVHTGDVVTGSVVLQRNPVWRRHMSVALSWAVTSRQDPTSQKVGEKVFPIWR
notes: PRMT2, human, UniProt P55345-1 printed for PRMT2 in the same sentence; cloned in pET28a(+); also called mCitrine-PRMT2; source: E. coli Arctic Express (DE3), purified (Ni-NTA, Superdex 200 SEC)
[3]
  binding result: binds
